Patent publication US7982017B2, “Antibodies recognizing a carbohydrate containing epitope on CD-43 and CEA expressed on cancer cells and methods using same” (BioAlliance C.V., priority 2007, dated 2011)

Assays:
COLO 205 cells [1] = experiment: Binding assay: flow cytometric binding of 5F1 antibodies to COLO 205 cells; details: for binding to Colo 205 (words): FIG. 3, 0.125 to 4 ug/ml
Procedure: Purified m5F1, c5F1-v0, c5F1-v15 and c5F1-v16 antibodies at the concentration ranging from 0.125 to 4 ug/ml were added to 1.5×10^5 COLO 205 cells and incubated for 30 min at 4° C., washed for twice with PBS containing 2% FBS and 0.05% NaN3, followed by incubation with 1 μg/ml of corresponding secondary antibodies (R-PE-conjugated goat F(ab′)2 anti-mouse IgG(H+L), Southern Biotech, Cat. No. 1032-09; or R-PE-conjugated goat anti-human IgG, Southern Biotech, Cat. No. 2040-09) at 4° C. for 30 min. At the end of staining, samples were washed twice with PBS containing 2% FBS and 0.05% NaN3 and analyzed by flow cytometer. All flow cytometric analyses were performed on a BD-LSR flow cytometer (Becton Dickinson) using the Cell Quest software.
Purified m5F1, c5F1-v0, c5F1-yl7, c5F1-v24 and c5F1-v25 antibodies at 1 ug/ml were added to 2×10^5 Colo 205 cells and incubated for 30 min at 4° C., washed for twice with PBS containing 1% FBS, followed by incubation with 1 ug/ml of corresponding secondary antibodies (R-PE-conjugated goat F(ab′)2 anti-mouse IgG(H+L), Southern Biotech, Cat. No. 1032-09; or R-PE-conjugated goat anti-human IgG, Southern Biotech, Cat. No. 2040-09) at 4° C. for 30 min. At the end of staining, samples were washed twice with PBS containing 1% FBS and 0.05% NaN3 and analyzed by flow cytometer. All flow cytometric analyses were performed on a BD-LSR flow cytometer (Becton Dickinson) using the Cell Quest software.

COLO 205 cells [2] = experiment: Six-hour apoptosis assay (Annexin V / PI, FACS) in COLO 205; assay type: cell-based; details: 6 h
Procedure: (§1) 1.5×10^5 of COLO 205 cells were seeded into the wells of 96-well plates. Aliquots of purified m5F1, c5F1-v0, c5F1-v15, c5F1-v16 and control antibodies at the concentration ranging from 2 to 32 ug/ml were prepared freshly in culture medium and added to each well. The sample treated with m9E10 and h16C11A were used as isotype control. The treated cells were kept at 37° incubator for 6 h before FACS analysis for apoptosis. For cellular apoptosis assay, Annexin V staining was measured using Annexin-V-FITC Apoptosis Detection Kit (Strong Biotech, Cat. No. AVK250) following the manufacturer's instruction. In brief, the treated cells were harvested and resuspended in Annexin V binding buffer containing Annexin V-FITC at room temperature. After 15 min incubation in the dark, the cells were washed twice with 200 μl of Annexin V binding buffer. Before FACS analysis, 0.25 μg/ml of propidium iodide (PI) was added. All flow cytometric analyses were performed on a BD-LSR flow cytometer (Becton Dickinson) using the Cell Quest software. The Annexin VI positive and/or PI positive cells are considered apoptotic cells.
1.5×10^5 of Colo205 cells were seeded into the wells of 96-well plates. Aliquots of purified m5F1, c5F1, c5F1-v17, c5F1-v24, c5F1-v25 and control antibodies at the concentration ranging from 8 to 32 ug/ml were prepared freshly in culture medium and added to each well. The treated cells were kept at 37° incubator for 6 h before FACS analysis for apoptosis. For cellular apoptosis assay, Annexin V staining was measured using Annexin-V-FITC Apoptosis Detection Kit (Strong Biotech, Cat. No. AV 250) following the manufacturer's instruction. In brief, the treated cells were harvested and resuspended in Annexin V binding buffer containing Annexin V-FITC at room temperature. After 15 min incubation in the dark, the cells were washed twice with 200 ul of Annexin V binding buffer. Before FACS analysis, 0.25 ug/ml of propidium iodide (PI) was added. All flow cytometric analyses were performed on a BD-LSR flow cytometer (Becton Dickinson) using the Cell Quest software. The Annexin VI positive and/or PI positive cells are considered apoptotic cells.

SU.86.86 cells [3] = experiment: Binding to SU.86.86 pancreatic cancer cells by flow cytometry
Procedure: Purified m5F1 and control antibodies at 1 ug/ml were added to 2×10^5 SU.86.86 cells and incubated for 1 hour at 4° C., washed twice with PBS containing 1% FBS, followed by incubation with 1 ug/ml of corresponding secondary antibodies (R-PE-conjugated goat F(ab′)2 anti-mouse IgG(H+L), Southern Biotech, Cat. No. 1032-09) at 4° C. for 1 hour. At the end of staining, samples were washed twice with PBS containing 1% FBS and analyzed by flow cytometer. All flow cytometric analyses were performed on a BD-LSR flow cytometer (Becton Dickinson) using the Cell Quest software.
(§2) Binding experiments were carried out for antibodies c5F1.v15, c5F1.v16, and c5F1.v24. […] Apoptosis assay was carried out for antibody c5F1.v15.

SU.86.86 cells [4] = experiment: Apoptosis induction of SU.86.86 cells (6 h, Annexin V / PI); assay type: cell-based
Procedure: as §1, with “2×10^5” for “1.5×10^5”, “SU86.86” for “COLO 205”, “12-well” for “96-well”, “m5F1” for “m5F1, c5F1-v0, c5F1-v15, c5F1-v16 and control antibodies”, “Control antibody at 32 ug/ml was included for background signal measurement.” for “The sample treated with m9E10 and h16C11A were used as isotype control.”
as §2

B1: c5F1-v16: chimeric 5F1, heavy chain v16 (hinge C220S), light chain v0[L] (antibody)
heavy: EVQLQQSGPELVKPGASVRMSCTASGYTFTSYVMHWIKQKPGQGLDWIGYINPYNGGTQYNEKFKGKATLTSDKSSSTAYMELSSLTSEDSAVYYCARRTFPYYFDYWGQGTTLTVSSASTKGPSVFPLAPSSKSTSGGTAALGCLVKDYFPEPVTVSWNSGALTSGVHTFPAVLQSSGLYSLSSVVTVPSSSLGTQTYICNVNHKPSNTKVDKKVEPKSSDKTHTCPPCPAPELLGGPSVFLFPPKPKDTLMISRTPEVTCVVVDVSHEDPEVKFNWYVDGVEVHNAKTKPREEQYNSTYRVVSVLTVLHQDWLNGKEYKCKVSNKALPAPIEKTISKAKGQPREPQVYTLPPRDELTKNQVSLTCLVKGFYPSDIAVEWESNGQPENNYKTTPPVLDSDGSFFLYSKLTVDKSRWQQGNVFSCSVMHEALHNHYTQKSLSLSPGK
light: DVLMTQTPLSLPVSLGDQASISCRSSQSILHSNGNTYLEWYLQKPGQSPKLLIYKVSNRFSGVPDRFSGSGSGTDFTLKISRVEAEDLGVYYCFQGSHAPLTFGAGTKLELKRTVAAPSVFIFPPSDEQLKSGTASVVCLLNNFYPREAKVQWKVDNALQSGNSQESVTEQDSKDSTYSLSSTLTLSKADYEKHKVYACEVTHQGLSSPVTKSFNRGEC
COLO 205 cells [1]
  binding to Colo 205 (words): relatively less compared to c5F1
COLO 205 cells [1]; listed as c5F1v16
  binding to Colo 205 (words): significant binding
COLO 205 cells [2]; 2 to 32 ug/ml, compared with m5F1
  apoptosis-inducing activity in COLO 205: almost as efficient as m5F1
COLO 205 cells [2]; Table 7, 4 ug/ml
  % of Annexin V and/or PI positive cells: 58%
COLO 205 cells [2]; Table 7, 8 ug/ml
  % of Annexin V and/or PI positive cells: 78%
COLO 205 cells [2]; Table 7, 16 ug/ml
  % of Annexin V and/or PI positive cells: 92%
COLO 205 cells [2]; Table 7, 32 ug/ml
  % of Annexin V and/or PI positive cells: 96%
SU.86.86 cells [3]
  binding to SU.86.86 cells: significant binding

B2: m5F1: murine antibody 5F1, isotype murine IgG3; heavy chain V region SEQ ID NO:1, light chain V region SEQ ID NO:2 (antibody, V domains shown)
VH: MEWSWIFLFLLSGTAGVHSEVQLQQSGPELVKPGASVRMSCTASGYTFTSYVMHWIKQKPGQGLDWIGYINPYNGGTQYNEKFKGKATLTSDKSSSTAYMELSSLTSEDSAVYYCARRTFPYYFDYWGQGTTLTVSS
VL: MKLPVRLLVLMFWIPASSSDVLMTQTPLSLPVSLGDQASISCRSSQSILHSNGNTYLEWYLQKPGQSPKLLIYKVSNRFSGVPDRFSGSGSGTDFTLKISRVEAEDLGVYYCFQGSHAPLTFGAGTKLELK
modifications: Murine
COLO 205 cells [1]
  binding to Colo 205 (words): significant binding
COLO 205 cells [1]; Table 10, antibodies at 1 ug/ml
  Median Fluorescence Intensity (MFI): 800
COLO 205 cells [2]; Table 7, 2 ug/ml
  % of Annexin V and/or PI positive cells: 35%
COLO 205 cells [2]; Table 7, 4 ug/ml
  % of Annexin V and/or PI positive cells: 53%
COLO 205 cells [2]; Table 7, 8 ug/ml
  % of Annexin V and/or PI positive cells: 76%
COLO 205 cells [2]; Table 7, 16 ug/ml
  % of Annexin V and/or PI positive cells: 92%
COLO 205 cells [2]; Table 7, 32 ug/ml
  % of Annexin V and/or PI positive cells: 93%
COLO 205 cells [2]; Table 11 Exp. 1, 8 ug/ml
  % of Annexin V and/or PI positive cells: 88%
COLO 205 cells [2]; Table 11 Exp. 1, 16 ug/ml
  % of Annexin V and/or PI positive cells: 92%
COLO 205 cells [2]; Table 11 Exp. 1, 32 ug/ml
  % of Annexin V and/or PI positive cells: 92%
COLO 205 cells [2]; Table 11 Exp. 2, 8 ug/ml
  % of Annexin V and/or PI positive cells: 89%
COLO 205 cells [2]; Table 11 Exp. 2, 16 ug/ml
  % of Annexin V and/or PI positive cells: 94%
COLO 205 cells [2]; Table 11 Exp. 2, 32 ug/ml
  % of Annexin V and/or PI positive cells: 96%
SU.86.86 cells [3]
  binding to SU.86.86 cells: could bind
SU.86.86 cells [3]; Table 14, antibody at 1 ug/ml
  MFI: 131
SU.86.86 cells [4]; 2 ug/ml
  % of Annexin V and/or PI positive cells: 60%
SU.86.86 cells [4]; 4 ug/ml
  % of Annexin V and/or PI positive cells: 72%
SU.86.86 cells [4]; 8 ug/ml
  % of Annexin V and/or PI positive cells: 78%
SU.86.86 cells [4]; 16 ug/ml
  % of Annexin V and/or PI positive cells: 89%
SU.86.86 cells [4]; 32 ug/ml
  % of Annexin V and/or PI positive cells: 91%
SU.86.86 cells [4]; 2 to 32 ug/ml
  apoptosis induction in SU.86.86 cells: induced apoptosis
